These substances were tested against HLA-A*02:01 (Homo sapiens, UniProt P04439, D140Y/D185E/D98H/E176V/E277Q/G131W/G231S/I119V/I121R/I166T/I218V/L300P/L318F/N151K/N90K/P208A/P217A/Q86G/Q94H/R138H/R169H/T345S) (assay: MHC binding assay (UV-ligand exchange, beta2m ELISA)). Details: binding of HLA-class I restricted peptides to HLA-A*02:01, β2m ELISA.
Procedure, shortened: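 Peptide–MHC complexes formed by UV-ligand exchange, cleaving a UV-sensitive peptide so the test peptide can bind. Exchange yield measured by ELISA: complexes captured on streptavidin-coated wells, diluted 100-fold, detected with HRP anti-β2m (1 h, 37 °C) and TMB at 450 nm, against refolded HLA-A*02:01/MLA-001 standards (15-500 ng/ml).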
In the case of “287 (FLWEEKFNSL; listed as Homo sapiens) [compound 287]”, the “Peptide Exchange (MHC class I binding score, peptide exchange yield)” value (“Peptide Exchange” for short) is reported as ““++++” (≥75% = ++++)”. “288 (GLAESTGLLAV; listed as Homo sapiens) [compound 288]” was tested, and the “Peptide Exchange” value was ““+++” (≥50 = +++)”. “289 (ILEEQPMDMLL; listed as Homo sapiens) [compound 289]” was tested, and the “Peptide Exchange” value was ““+++” (≥50 = +++)”. With “291 (ILLNEDDLVTI; listed as Homo sapiens) [compound 291]” the “Peptide Exchange” value was ““+++” (≥50 = +++)”. In the case of “292 (AAALIIHHV; listed as Homo sapiens) [compound 292]”, the “Peptide Exchange” value is reported as ““+++” (≥50 = +++)”. With “293 (ALDIMIPMV; listed as Homo sapiens) [compound 293]” the “Peptide Exchange” value was ““+++” (≥50 = +++)”. “294 (ALLDQLHTLL; listed as Homo sapiens) [compound 294]” was tested, and the “Peptide Exchange” value was ““++++” (≥75% = ++++)”. In the case of “295 (ALLQKLQQL; listed as Homo sapiens) [compound 295]”, the “Peptide Exchange” value is reported as ““+++” (≥50 = +++)”. For “296 (FIAPTGHSL; listed as Homo sapiens) [compound 296]”, the “Peptide Exchange” value was ““++” (≥20% = ++)”. For “297 (FLVEPQEDTRL; listed as Homo sapiens) [compound 297]”, the “Peptide Exchange” value was ““+++” (≥50 = +++)”. For “298 (IILPVEVEV; listed as Homo sapiens) [compound 298]”, the “Peptide Exchange” value was ““+++” (≥50 = +++)”. For “299 (ILEENIPVL; listed as Homo sapiens) [compound 299]”, the “Peptide Exchange” value was ““+++” (≥50 = +++)”. In the case of “300 (ILLNPAYDVYL; listed as Homo sapiens) [compound 300]”, the “Peptide Exchange” value is reported as ““+++” (≥50 = +++)”. With “301 (AASPIITLV; listed as Homo sapiens) [compound 301]” the “Peptide Exchange” value was ““+++” (≥50 = +++)”. “302 (ILQDLTFVHL; listed as Homo sapiens) [compound 302]” was tested, and the “Peptide Exchange” value was ““+++” (≥50 = +++)”. With “303 (ILSQPTPSL; listed as Homo sapiens) [compound 303]” the “Peptide Exchange” value was ““+++” (≥50 = +++)”. With “304 (LAIVPVNTL; listed as Homo sapiens) [compound 304]” the “Peptide Exchange” value was ““+” (≥10% = +)”. In the case of “305 (LLFPQIEGIKI; listed as Homo sapiens) [compound 305]”, the “Peptide Exchange” value is reported as ““+++” (≥50 = +++)”. In the case of “306 (VVAEELENV; listed as Homo sapiens) [compound 306]”, the “Peptide Exchange” value is reported as ““++” (≥20% = ++)”. “308 (SLYDVSRMYV; listed as Homo sapiens) [compound 308]” was tested, and the “Peptide Exchange” value was ““++++” (≥75% = ++++)”. “309 (ILYGTQFVL; listed as Homo sapiens) [compound 309]” was tested, and the “Peptide Exchange” value was ““+++” (≥50 = +++)”. “310 (LLSTLHLLV; listed as Homo sapiens) [compound 310]” was tested, and the “Peptide Exchange” value was ““+++” (≥50 = +++)”. With “311 (LLVDVEPKV; listed as Homo sapiens) [compound 311]” the “Peptide Exchange” value was ““+++” (≥50 = +++)”. For “312 (LLYNSTDPTL; listed as Homo sapiens) [compound 312]”, the “Peptide Exchange” value was ““+++” (≥50 = +++)”. For “313 (LMADLEGLHL; listed as Homo sapiens) [compound 313]”, the “Peptide Exchange” value was ““+++” (≥50 = +++)”. With “314 (LMKDCEAEV; listed as Homo sapiens) [compound 314]” the “Peptide Exchange” value was ““+++” (≥50 = +++)”. With “315 (LVYEAPETV; listed as Homo sapiens) [compound 315]” the “Peptide Exchange” value was ““+++” (≥50 = +++)”. With “316 (MLLEHGITL; listed as Homo sapiens) [compound 316]” the “Peptide Exchange” value was ““+++” (≥50 = +++)”. With “317 (NLLAHIWAL; listed as Homo sapiens) [compound 317]” the “Peptide Exchange” value was ““+++” (≥50 = +++)”. In the case of “318 (NLQVTQPTV; listed as Homo sapiens) [compound 318]”, the “Peptide Exchange” value is reported as ““+++” (≥50 = +++)”. “319 (QVIPQLQTV; listed as Homo sapiens) [compound 319]” was tested, and the “Peptide Exchange” value was ““+++” (≥50 = +++)”. With “321 (RLLEFELAQL; listed as Homo sapiens) [compound 321]” the “Peptide Exchange” value was ““+++” (≥50 = +++)”. With “324 (SLYSALQQA; listed as Homo sapiens) [compound 324]” the “Peptide Exchange” value was ““+++” (≥50 = +++)”. “325 (TLENGVPCV; listed as Homo sapiens) [compound 325]” was tested, and the “Peptide Exchange” value was ““+++” (≥50 = +++)”. “326 (VLAFLVHEL; listed as Homo sapiens) [compound 326]” was tested, and the “Peptide Exchange” value was ““++++” (≥75% = ++++)”. “327 (VLIKWFPEV; listed as Homo sapiens) [compound 327]” was tested, and the “Peptide Exchange” value was ““++++” (≥75% = ++++)”. In the case of “328 (VLLPQETAEIHL; listed as Homo sapiens) [compound 328]”, the “Peptide Exchange” value is reported as ““++++” (≥75% = ++++)”. In the case of “330 (VLMWEIYSL; listed as Homo sapiens) [compound 330]”, the “Peptide Exchange” value is reported as ““+++” (≥50 = +++)”. In the case of “331 (VLWELAHLPTL; listed as Homo sapiens) [compound 331]”, the “Peptide Exchange” value is reported as ““+++” (≥50 = +++)”. With “333 (VTLEFPQLIRV; listed as Homo sapiens) [compound 333]” the “Peptide Exchange” value was ““+++” (≥50 = +++)”. In the case of “334 (YLLEEKIASL; listed as Homo sapiens) [compound 334]”, the “Peptide Exchange” value is reported as ““+++” (≥50 = +++)”. In the case of “335 (YLYQEQYFI; listed as Homo sapiens) [compound 335]”, the “Peptide Exchange” value is reported as ““+++” (≥50 = +++)”. For “336 (YMAVTTQEV; listed as Homo sapiens) [compound 336]”, the “Peptide Exchange” value was ““++++” (≥75% = ++++)”. For “337 (YMYEKESEL; listed as Homo sapiens) [compound 337]”, the “Peptide Exchange” value was ““++” (≥20% = ++)”. “338 (FLDMTNWNL; listed as Homo sapiens) [compound 338]” was tested, and the “Peptide Exchange” value was ““++++” (≥75% = ++++)”. With “339 (GLWGTVVNI; listed as Homo sapiens) [compound 339]” the “Peptide Exchange” value was ““+++” (≥50 = +++)”. In the case of “340 (KLLEEICNL; listed as Homo sapiens) [compound 340]”, the “Peptide Exchange” value is reported as ““++++” (≥75% = ++++)”. In the case of “341 (LLAELPASVHA; listed as Homo sapiens) [compound 341]”, the “Peptide Exchange” value is reported as ““+++” (≥50 = +++)”. With “342 (SLITPLQAV; listed as Homo sapiens) [compound 342]” the “Peptide Exchange” value was ““+++” (≥50 = +++)”. For “344 (VLAFENPQV; listed as Homo sapiens) [compound 344]”, the “Peptide Exchange” value was ““+++” (≥50 = +++)”. For “345 (YLIEPDVELQRI; listed as Homo sapiens) [compound 345]”, the “Peptide Exchange” value was ““+++” (≥50 = +++)”. “346 (VLVQVSPSL; listed as Homo sapiens) [compound 346]” was tested, and the “Peptide Exchange” value was ““+++” (≥50 = +++)”. “347 (YLGPVSPSL; listed as Homo sapiens) [compound 347]” was tested, and the “Peptide Exchange” value was ““+++” (≥50 = +++)”. In the case of “348 (ALAKPPVVSV; listed as Homo sapiens) [compound 348]”, the “Peptide Exchange” value is reported as ““+++” (≥50 = +++)”. With “349 (ALATHILSL; listed as Homo sapiens) [compound 349]” the “Peptide Exchange” value was ““+++” (≥50 = +++)”. For “350 (ALEDRVWEL; listed as Homo sapiens) [compound 350]”, the “Peptide Exchange” value was ““+++” (≥50 = +++)”. For “351 (ALSEKLARL; listed as Homo sapiens) [compound 351]”, the “Peptide Exchange” value was ““+++” (≥50 = +++)”. With “352 (ALVFELHYV; listed as Homo sapiens) [compound 352]” the “Peptide Exchange” value was ““+++” (≥50 = +++)”. In the case of “353 (ATPMPTPSV; listed as Homo sapiens) [compound 353]”, the “Peptide Exchange” value is reported as ““++” (≥20% = ++)”. “354 (FIMDDPAGNSYL; listed as Homo sapiens) [compound 354]” was tested, and the “Peptide Exchange” value was ““+++” (≥50 = +++)”. For “355 (FIWPMLIHI; listed as Homo sapiens) [compound 355]”, the “Peptide Exchange” value was ““+++” (≥50 = +++)”. For “356 (FLHDHQAEL; listed as Homo sapiens) [compound 356]”, the “Peptide Exchange” value was ““++” (≥20% = ++)”. In the case of “357 (FLIQEIKTL; listed as Homo sapiens) [compound 357]”, the “Peptide Exchange” value is reported as ““+++” (≥50 = +++)”. For “358 (FLTDYLNDL; listed as Homo sapiens) [compound 358]”, the “Peptide Exchange” value was ““+++” (≥50 = +++)”. “359 (FMQDPMEVFV; listed as Homo sapiens) [compound 359]” was tested, and the “Peptide Exchange” value was ““+++” (≥50 = +++)”. In the case of “360 (HLIDTNKIQL; listed as Homo sapiens) [compound 360]”, the “Peptide Exchange” value is reported as ““+++” (≥50 = +++)”.

— patent publication US10064928B2, “Peptides and combination of peptides for use in immunotherapy against CLL and other cancers” (IMMATICS BIOTECHNOLOGIES GMBH, priority 2015, dated 2018)
